Assay results from a protein production outcome set (Wang et al. 2014).

Assay: label from the status in PepcDB records
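Note: failed if final PepcDB status was selected cloned or expressed and not failed if soluble or beyond.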

MRLLAKIICLMLWAICVAEDCNELPPRRNTEILTGSWSDQTYPEGTQAIYKCRPGYRSLGNVIMVCRKGEWVALNPLRKCQKRPCGHPGDTPFGTFTLTGGNVFEYGVKAVYTCNEGYQLLGEINYRECDTDGWTNDIPICEVVKCLPVTAPENGKIVSSAMEPDREYHFGQAVRFVCNSGYKIEGDEEMHCSDDGFWSKEKPKCVEISCKSPDVINGSPISQKIIYKENERFQYKCNMGYEYSERGDAVCTESGWRPLPSCEEKSCDNPYIPNGDYSPLRIKHRTGDEITYQCRNGFYPATRGNTAKCTSTGWIPAPRCTLKPCDYPDIKHGGLYHENMRRPYFPVAVGKYYSYYCDEHFETPSGSYWDHIHCTQDGWSPAVPCLRKCYFPYLENGYNQNYGRKFVQGKSIDVACHPGYALPKAQTTVTCMENGWSPTPRCIRVKTCSKSSIDIENGFISESQYTYALKEKAKYQCKLGYVTADGETSGSITCGKDGWSAQPTCIKSCDIPVFMNARTKNDFTWFKLNDTLDYECHDGYESNTGSTTGSIVCGYNGWSDLPICYERECELPKIDVHLVPDRKKDQYKVGEVLKFSCKPGFTIVGPNSVQCYHFGLSPDLPICKEQVQSCGPPPELLNGNVKEKTKEEYGHSEVVEYYCNPRFLMKGPNKIQCVDGEWTTLPVCIVEESTCGDIPELEHGWAQLSSPPYYYGDSVEFNCSESFTMIGHRSITCIHGVWTQLPQCVAIDKLKKCKSSNLIILEEHLKNKKEFDHNSNIRYRCRGKEGWIHTVCINGRWDPEVNCSMAQIQLCPPPPQIPNSHNMTTTLNYRDGEKVSVLCQENYLIQEGEEITCKDGRWQSIPLCVEKIPCSQPPQIEHGTINSSRSSQESYAHGTKLSYTCEGGFRISEENETTCYMGKWSSPPQCEGLPCKSPPEISHGVVAHMSDSYQYGEEVTYKCFEGFGIDGPAIAKCLGEKWSHPPSCIKTDCLSLPSFENAIPMGEKKDVYKAGEQVTYTCATYYKMDGASNVTCINSRWTGRPTCRDTSCVNPPTVQNAYIVSRQMSKYPSGERVRYQCRSPYEMFGDEEVMCLNGNWTEPPQCKDSTGKCGPPPPIDNGDITSFPLSVYAPASSVEYQCQNLYQLEGNKRITCRNGQWSEPPKCLHPCVISREIMENYNIALRWTAKQKLYSRTGESVEFVCKRGYRLSSRSHTLRTTCWDGKLEYPTCAKR
protein production: failed

MVLIYCYKYFHEFMEAFDRIQKNIMEAHMKKVIGAATATVFGLGAFTTTATAETIVTADVLNVREKPTTESKVVEKVKNGQELKVINTEDGWSKIELNGKEVFVSSEFTKDIYHVTANLLNVRTEANTESKILGRLKKDDVIESTNQVKDGWLQFEYKGKTAYVNVSFLSSTAPVEKKADEKTKQVAKVQKMVKAKEEAKTQKVTKAKETIKPKEEEKVQEVVKPKEEEKVQEVVKPKEEEKVQEVVKPKEEEKIQEVAKPKEEAKVQEVAKPKEEEKVQEVAKPKEEEKVQEVVKPKEEEKVQEVAKSKEEAKVQEVAKPKEEAKVQEVVKPKEEAKVQEEAKAQEIAKAKEEAKAQEIAKAKEEEKAREIAKAKEEAKAQEIAKAKEEAKAQEIAKAKEEAKAQEIAKAKEEEKAREIAKAKEEAKAQEIAKAKEEAKAREIAKAKEEAKAREAIKAKEESKNNTQSAKRELTVVATAYTADPSENGTYGGRVLTAMGHDLTANPNMRIIAVDPKVIPLGSKVWVEGYGEAIAGDTGSAIKGNRIDVLMGSKSKAMDWGRQTVKVKIL
protein production: failed

MKKRLFVLSLILLVALDQLSKFWIVSHIALGEVKPFIPGIVSLTYLQNNGAAFSILQDQQWFFVVITVLVIGYAIYYLATHPHLNIWKQLALLLIISGGIGNFIDRLRLAYVIDMIHLDFVDFAIFNVADSYLTVGVILLLICLWKEEDYGN
protein production: failed

MDMKAPIKVYMTKKLLGVKPSTSVQEASRLMMEFDVGSLVVINDDGNVVGFFTKSDIIRRVIVPGLPYDIPVERIMTRNLITANVNTPLGEVLRKMAEHRIKHILIEEEGKIVGIFTLSDLLEASRRRLETAISAE
protein production: not failed

MSHFVHPNALCESDTIGEGTRVWAFAHVLPGARLGRDCNICDGVFIESDVVVGDRVTVKCGVQLWDGVRLGDDVFVGPNATFTNDLFPRSRVYPEKFLGTVVESGASIGANATILAGTTIGSGAMIGAGAVVTRSVPPNAIVVGNPARIVGYVSDKDATGSAPSPTGQGITDTAVPGVKLYRMPSFADMRGSLSVGDFETFLPFNAKRYFLVYGVPTQETRGEHAHKRCHQFLICVSGSVRVLADDGTRRIDVELNSPSQGIHLPPMIWGTQYKYSKDAVLLVFASESYDTDEYIRDYSDFKSLANAAR
protein production: failed

EIDYTAYPWFAGNMERQQTDNLLKSHASGTYLIRERPAEAERFAISIKFNDEVKHIKVVEKDNWIHITEAKKFDSLLELVEYYQCHSLKESFKQLDTTLKYPYK
protein production: failed

MIFAFVFDRDYYSLGLVLLALFSAQSPYGGLSLEIYLKSCRIQQNYTRLNTMKLRLPHAPYVANKIALDLVSSGYIELGSNMEKISQIAKHFLEENIKKEAALEEKVRLLLEANLEEIEFLRVDERQFFWMAKKKLAEEEGFILAKDDRYSHLSHQILDELIKEEVIDFGVSDTIIKNVIFKAIDGYVKIYESIEDVVIEKIENYKRKIIAGTEEYDMVFEKLYEEELKKRGFL
protein production: failed

MALRLALSLCVYLLFTQGAQGNTDDFDCVEIYKQPAFQHPLLKDHKIQETFSLDGKIERSNKYNTKEHCPKGTVAILRQRNVSKGVHLNTAEYSGQHFATIETILDGSIYRGAEADISIHDLKLQNNQYSKSQIWLENGPPGQLNSIQAGLAVHPRLYGDSVTRFTIYWTGDGYQKTGCYNTQCPGFVVVSRNSRIGSGFWGTSVYGKTSLTFKLQVFQDGFSGNWALKMFDEVIGYWPKELFSHLNNGASLVRYGGNTFESPDGISPPMGNGFFPVADFKKTAHFNNVVVINSDYKRVYIEGRKIRLYVDSYNCFRATYWGYTKSTGEAFSFGGPGGNCGF
protein production: failed

MSVCTAHHPMTSPLPPFPLQQRLSRRTLLRFITHTAGIALLNPIGLAQSAPRAGKPPASSSDFISRRPPQAQRRFVSAAVEQQLIHIKAKIADPELAWLFENCYPNTLDTTVSTGTRNGKPDTFIITGDIQALWLRDSAAQVQAYVPLARHDPALRRLFHGLIQRHAACIRLDPYANAFLPDGVSHPLKWSVNDVTQMQPGIGERKWEIDSLCYPIRLAHAYWRASDDIAPFDEDWRQAMHIVLRTFGEQQRLQTPGPYTFQRPALRATETLMLEGYGAPTRPNGMLHSMFRPSDDACTYPLSVPENLFAVITLRQLAAMSEAIHHDAAFASQCRSLAHEIAQATQQFGLMHDADNHPFWAYEVDGYGNQLFMDDANAPSLLSLAYLGCCTSTDPVFLRTRDLAWSARNPYFCQGRAAVGVGSPHTGRHTIWPMSLIHYALSSHDDTQIQHCLHWLKTTHAGTGFMHEAFHQDDPSTFTRSWFAWANSLFGELIVDLAQRKPHLLGVNRSAALLHG
protein production: failed

MAATASPQPLATEDADAENSSFYYYDYLDEVAFMLCRKDAVVSFGKVFLPVFYSLIFVLGLSGNLLLLMVLLRYVPRRRMVEIYLLNLAISNLLFLVTLPFWGISVAWHWVFGSFLCKMVSTLYTINFYSGIFFISCMSLDKYLEIVHAQPYHRLRTRAKNLLLATIVWAVSLAVSIPDMVFVQTHENPKGVWNYHADFGGHGTIWKLFLRFQQNLLGFLLPLLGMIFFYSRIGCVLVRLRPAGQGRALKIAAALVVAFFVLWFPYNLTLFLHTLLDLQVFGNCEVSQHLDYALQVTESIAFLHCCFSPILYAFSSHRFRQYLKAFLAAVLGWHLAPGTAQASLSSCSESSILTALEEMTGMNDLGERQSENYPNKEDVGNKSA
protein production: failed

MALRVTFVAAARSSPLLAERFDDERPLDQAGWNEALRAAGDLLPLAAAELRYCSPTPRSRATGDAIGCAPLSQLALRACDMGRWRGLTLGEAMAREPAAVDAWLADPRSAPHGGESLLGFITRVGGWLDTRPGEDGDRIVAVAEPSVIRAALVYALKAPPGTYWNLDVRPLSTTTVTGRAGRWSLRFEGTPDQGATRPAFRGGNPL
protein production: failed

MSLKYFKRLSDRERAIFEAGITLGAIYHQFCGTPVSPGTAEEVAKCIERAALLQPCVIDARVEVDVSSEDTDNYGGYTEVSGRNLRVTIVTRCGEWEAVGKLEFIEELNYPLMWVEEIRRVEQEGHHHHHH
protein production: not failed

MIDLDFRKLTIEECLKLSEEEREKLPQLSLETIKRLDPHVKAFISVRENVSVEKKGKFWGIPVAIKDNILTLGMRTTCASRILENYESVFDATVVKKMKEAGFVVVGKANLDEFAMGSSTERSAFFPTRNPWDLERVPGGSSGGSAAAVSAGMVVAALGSDTGGSVRQPASLCGVVGYKPTYGLVSRYGLVAFASSLDQIGPITKTVRDAAILMEIISGRDENDATTVNRKVDFLSEIEEGVSGMKFAVPEEIYEHDIEEGVSERFEEALKLLERLGAKVERVKIPHIKYSVATYYVIAPAEASSNLARFDGVKYGLRIKEKGLREMYMKTRNVGFGEEVRRRIMIGTFTLSAAYYEAYFNKAMKVRRKISDELNEVLSQYDAILTPTSPVTAFKIGEIKDPLTYYLMDIFTIPANLAGLPAISVPFGFSNNLPVGVQVIGRRFADGKVFRIARAIEKNSPYNENGMFPLPEVKA
protein production: not failed

MKKNIVVLVLIVLIIFSAGSGCISSDVISSANTSSDEADGNTGENSALGKSADSEPDQANITPYGKSSPYLYWEYELGDVTPENTLGGRSSVQDCVSFAPDGKSVATGTGSNLTVVSVSEKNVLWTKILSGNISDLTFSEDGKYLLVGEKSADGCIYSLDANTGEEIRTYRTSDDLGTDSNPKYQPCIYKITAAEDSVYVAAGRYWKDSKYGLASRVYGFSPDGTFSWKLPATENYARSVNWIDASQDGKNVVYSIGDWTNSLESDAVVYSVDAGGKLRWKYEIPALRPYFVSAAIWHGLDVSEDGSLVTAYTGDGRTYLFYDAEMKDPGDGKSEWYSEEYQSNVTTPEELEGSAIYTYGENAKIAADNEILYLTGATLPAYYPDNIPMAHPLENSLISCDAEKGETSWTYNLGGRCAGIFFSQDMRYFVLPVGKDTSTGDTRVHGVYVFDSRKSGNGNSKLLWTFRTEGVVENAAISSNCTVAAVEVPLQLENGDVTGKHRLIIVR
protein production: failed

MDDKTAGGKIVMNKEQLLLFMENRRKQEDHRLALAKEATRSEMVDRKASGKIIMNHDQQLMFNEDHRLAVKKASRSEMVDLEGMGSEASVIMSNVPQPTSFSEDHKLAIKNIISKIVKEIRDRDHPA
protein production: failed

RPKTGFQMWLEENRSNILSDNPDFSDEADIIKEGMIRFRVLSTEERKVWANKAKGETASEGTEAKKRK
protein production: not failed

MRNPNDVFHLAIPARDLDEAYDFYVTKLGCKLARRYPDRITLDFFGDQLVCHLSDRWDREVSMYPRHFGITFRDKKHFDNLYKLAKQRGIPFYHDLSRRFEGLIEEHETFFLIDPSNNLLEFKYYFDDRMMY
protein production: not failed

MSYEFYGKTEQEAIKKAMRDLELKEGEFDVEILDKERVGFLFKKEMIKIRVSPHAKEVKKDDFEIKIGDEICDKILEFVKEMLIKMGYSVHLTIEPKEGGYVKISIETDSPNILIGREGKNLDSLQLLTNVYASKLIGENGAFNRVILDIGDYRERFKSRFINLAINSFHKVKRTRRSILLPSMNPFERRIVHTTLNRYSDIKTESEGDGNIKRIRVSYVRNNRYGINNSRGYQKRDIGFKK
protein production: failed

MNNNLQRDAIAAAIDVLNEERVIAYPTEAVFGVGCDPDSETAVMRLLELKQRPVDKGLILIAANYEQLKPYIDDTMLTDVQRETIFSRWPGPVTFVFPAPATTPRWLTGRFDSLAVRVTDHPLVVALCQAYGKPLVSTSANLSGLPPCRTVDEVRAQFGAAFPVVPGETGGRLNPSEIRDALTGELFRQG
protein production: not failed

MTFGEKLLNAASTRGRLCVGIDPHESLLTSWGLPVNVDGLAEFSRACVEAFADTVALVKPQVAFYERFGSAGFAILEETIQTLRERGCLVVSDAKRGDIGSTMAGYASAWLDPASPLSSDAVTVSPYLGFHSLDPVFELAEQHGRGVFVLAATSNPEARELQDQQNADGVSISQQIVDQAAALNAPYMAQGKAGNIGVVIGATLSKPPRLSTLGGAILMPGVGAQGGTASDVDEIAGDMAHLAFPNVSRSILATGPDIAEMKNSVAKNAADFPGFPRS
protein production: failed
